Data on 11 variants can be found in IntAct's records for PubMed 25910212.

B1: Progranulin (Homo sapiens), P28799 (parent)
chain: MWTLVSWVALTAGLVAGTRCPDGQFCPVACCLDPGGASYSCCRPLLDKWPTTLSRHLGGPCQVDAHCSAGHSCIFTVSGTSSCCPFPEAVACGDGHHCCPRGFHCSADGRSCFQRSGNNSVGAIQCPDSQFECPDFSTCCVMVDGSWGCCPMPQASCCEDRVHCCPHGAFCDLVHTRCITPTGTHPLAKKLPAQRTNRAVALSSSVMCPDARSRCPDGSTCCELPSGKYGCCPMPNATCCSDHLHCCPQDTVCDLIQSKCLSKENATTDLLTKLPAHTVGDVKCDMEVSCPDGYTCCRLQSGAWGCCPFTQAVCCEDHIHCCPAGFTCDTQKGTCEQGPHQVPWMEKAPAHLSLPDPQALKRDVPCDNVSSCPSSDTCCQLTSGEWGCCPIPEAVCCSDHQHCCPQGYTCVAEGQCQRGSEIVAGLEKMPARRASLSHPRDIGCDQHTSCPVGQTCCPSLGGSWACCQLPHAVCCEDRQHCCPAGYTCNVKARSCEKEVVSAQPATFLARSPHVGVKDVECGEGHFCHDNQTCCRDNRQGWACCPYRQGVCCADRRHCCPAGFRCAARGTKCLRREAPRWDAPLRDPALRQLL
B2: F-box only protein 7 (Homo sapiens), Q9Y3I1 (parent)
chain: MRLRVRLLKRTWPLEVPETEPTLGHLRSHLRQSLLCTWGYSSNTRFTITLNYKDPLTGDEETLASYGIVSGDLICLILQDDIPAPNIPSSTDSEHSSLQNNEQPSLATSSNQTSMQDEQPSDSFQGQAAQSGVWNDDSMLGPSQNFEAESIQDNAHMAEGTGFYPSEPMLCSESVEGQVPHSLETLYQSADCSDANDALIVLIHLLMLESGYIPQGTEAKALSMPEKWKLSGVYKLQYMHPLCEGSSATLTCVPLGNLIVVNATLKINNEIRSVKRLQLLPESFICKEKLGENVANIYKDLQKLSRLFKDQLVYPLLAFTRQALNLPDVFGLVVLPLELKLRIFRLLDVRSVLSLSAVCRDLFTASNDPLLWRFLYLRDFRDNTVRVQDTDWKELYRKRHIQRKESPKGRFVMLLPSSTHTIPFYPNPLHPRPFPSSRLPPGIIGGEYDQRPTLPYVGDPISSLIPGPGETPSQFPPLRPRFDPVGPLPGPNPILPGRGGPNDRFPFRPSRGRPTDGRLSFM
B3: Dual specificity protein phosphatase 23 (Homo sapiens), Q9BVJ7 (parent)
chain: MGVQPPNFSWVLPGRLAGLALPRLPAHYQFLLDLGVRHLVSLTERGPPHSDSCPGLTLHRLRIPDFCPPAPDQIDRFVQIVDEANARGEAVGVHCALGFGRTGTMLACYLVKERGLAAGDAIAEIRRLRPGSIETYEQEKAVFQFYQRTK
B4: Beta-crystallin A4 (Homo sapiens), P53673 (parent)
chain: MTLQCTKSAGPWKMVVWDEDGFQGRRHEFTAECPSVLELGFETVRSLKVLSGAWVGFEHAGFQGQQYILERGEYPSWDAWGGNTAYPAERLTSFRPAACANHRDSRLTIFEQENFLGKKGELSDDYPSLQAMGWEGNEVGSFHVHSGAWVCSQFPGYRGFQYVLECDHHSGDYKHFREWGSHAPTFQVQSIRRIQQ
partner: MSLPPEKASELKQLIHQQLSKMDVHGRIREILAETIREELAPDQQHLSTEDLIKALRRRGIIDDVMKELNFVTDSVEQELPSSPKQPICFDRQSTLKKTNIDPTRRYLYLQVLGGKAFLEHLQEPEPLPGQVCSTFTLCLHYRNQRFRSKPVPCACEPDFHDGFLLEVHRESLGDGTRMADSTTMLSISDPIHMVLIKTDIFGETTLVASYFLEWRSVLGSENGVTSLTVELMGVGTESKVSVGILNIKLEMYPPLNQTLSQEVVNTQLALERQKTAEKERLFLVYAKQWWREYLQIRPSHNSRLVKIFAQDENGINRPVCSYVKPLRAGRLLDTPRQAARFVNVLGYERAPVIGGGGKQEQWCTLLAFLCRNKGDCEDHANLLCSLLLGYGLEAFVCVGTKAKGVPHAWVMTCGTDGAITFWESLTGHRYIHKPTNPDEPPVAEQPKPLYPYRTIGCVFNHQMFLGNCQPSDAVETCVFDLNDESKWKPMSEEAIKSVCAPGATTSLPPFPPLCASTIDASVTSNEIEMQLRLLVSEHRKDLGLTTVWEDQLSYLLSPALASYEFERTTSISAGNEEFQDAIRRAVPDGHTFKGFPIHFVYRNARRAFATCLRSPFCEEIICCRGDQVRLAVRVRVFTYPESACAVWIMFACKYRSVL
B5: Neurogenin-3 (Homo sapiens), Q9Y4Z2 (parent)
chain: MTPQPSGAPTVQVTRETERSFPRASEDEVTCPTSAPPSPTRTRGNCAEAEEGGCRGAPRKLRARRGGRSRPKSELALSKQRRSRRKKANDRERNRMHNLNSALDALRGVLPTFPDDAKLTKIETLRFAHNYIWALTQTLRIADHSLYALEPPAPHCGELGSPGGSPGDWGSLYSPVSQAGSLSPAASLEERPGLLGATFSACLSPGSLAFSDFL
B6: U4/U6 small nuclear ribonucleoprotein Prp31 (Homo sapiens), Q8WWY3 (parent)
chain: MSLADELLADLEEAAEEEEGGSYGEEEEEPAIEDVQEETQLDLSGDSVKTIAKLWDSKMFAEIMMKIEEYISKQAKASEVMGPVEAAPEYRVIVDANNLTVEIENELNIIHKFIRDKYSKRFPELESLVPNALDYIRTVKELGNSLDKCKNNENLQQILTNATIMVVSVTASTTQGQQLSEEELERLEEACDMALELNASKHRIYEYVESRMSFIAPNLSIIIGASTAAKIMGVAGGLTNLSKMPACNIMLLGAQRKTLSGFSSTSVLPHTGYIYHSDIVQSLPPDLRRKAARLVAAKCTLAARVDSFHESTEGKVGYELKDEIERKFDKWQEPPPVKQVKPLPAPLDGQRKKRGGRRYRKMKERLGLTEIRKQANRMSFGEIEEDAYQEDLGFSLGHLGKSGSGRVRQTQVNEATKARISKTLQRTLQKQSVVYGGKSTIRDRSSGTASSVAFTPLQGLEIVNPQAAEKKVAEANQKYFSSMAEFLKVKGEKSGLMST
partner: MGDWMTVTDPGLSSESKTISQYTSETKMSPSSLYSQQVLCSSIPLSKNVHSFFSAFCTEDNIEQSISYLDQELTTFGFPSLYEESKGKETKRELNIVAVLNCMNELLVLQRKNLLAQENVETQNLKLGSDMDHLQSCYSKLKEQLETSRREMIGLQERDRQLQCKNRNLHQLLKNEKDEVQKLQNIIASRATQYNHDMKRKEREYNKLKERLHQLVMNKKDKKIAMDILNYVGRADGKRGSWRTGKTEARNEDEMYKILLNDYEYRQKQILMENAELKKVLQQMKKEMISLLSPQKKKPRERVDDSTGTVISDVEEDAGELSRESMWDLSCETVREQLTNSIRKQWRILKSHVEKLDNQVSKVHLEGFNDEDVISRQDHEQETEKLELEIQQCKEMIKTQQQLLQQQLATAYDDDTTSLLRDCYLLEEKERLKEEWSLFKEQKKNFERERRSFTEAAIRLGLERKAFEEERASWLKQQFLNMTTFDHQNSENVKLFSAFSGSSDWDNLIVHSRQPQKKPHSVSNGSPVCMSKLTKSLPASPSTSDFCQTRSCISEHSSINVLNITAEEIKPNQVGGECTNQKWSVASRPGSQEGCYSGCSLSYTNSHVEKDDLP
B7: Keratin, type I cytoskeletal 18 (Homo sapiens), P05783 (parent)
chain: MSFTTRSTFSTNYRSLGSVQAPSYGARPVSSAASVYAGAGGSGSRISVSRSTSFRGGMGSGGLATGIAGGLAGMGGIQNEKETMQSLNDRLASYLDRVRSLETENRRLESKIREHLEKKGPQVRDWSHYFKIIEDLRAQIFANTVDNARIVLQIDNARLAADDFRVKYETELAMRQSVENDIHGLRKVIDDTNITRLQLETEIEALKEELLFMKKNHEEEVKGLQAQIASSGLTVEVDAPKSQDLAKIMADIRAQYDELARKNREELDKYWSQQIEESTTVVTTQSAEVGAAETTLTELRRTVQSLEIDLDSMRNLKASLENSLREVEARYALQMEQLNGILLHLESELAQTRAEGQRQAQEYEALLNIKVKLEAEIATYRRLLEDGEDFNLGDALDSSNSMQTIQKTTTRRIVDGKVVSETNDTKVLRH

In one experiment the parent is B1. The note with it: with hxa1_human HOXA1, P49639.
Sequence of hxa1_human HOXA1, P49639 (P49639 whole entry): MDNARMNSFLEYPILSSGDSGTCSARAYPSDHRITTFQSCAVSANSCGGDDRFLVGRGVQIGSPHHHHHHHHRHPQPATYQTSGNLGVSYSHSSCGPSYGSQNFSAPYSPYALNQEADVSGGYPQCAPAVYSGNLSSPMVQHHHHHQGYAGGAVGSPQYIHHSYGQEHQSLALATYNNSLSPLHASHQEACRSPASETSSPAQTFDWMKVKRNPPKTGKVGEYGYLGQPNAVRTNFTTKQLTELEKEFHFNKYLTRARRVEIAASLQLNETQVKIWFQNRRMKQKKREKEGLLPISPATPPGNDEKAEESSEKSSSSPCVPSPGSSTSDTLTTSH
As for R432C, the “effect of a mutation on the interaction” value is reported as “disrupting interaction strength”.
On the same count and under the same terms, next, P451L: “with no effect”.

In another experiment the parent is B1. The note with it: with ARFGAP1, Q8N6T3-3.
Sequence of ARFGAP1, Q8N6T3-3 (Q8N6T3 other isoform, or with tags, fused parts or gaps): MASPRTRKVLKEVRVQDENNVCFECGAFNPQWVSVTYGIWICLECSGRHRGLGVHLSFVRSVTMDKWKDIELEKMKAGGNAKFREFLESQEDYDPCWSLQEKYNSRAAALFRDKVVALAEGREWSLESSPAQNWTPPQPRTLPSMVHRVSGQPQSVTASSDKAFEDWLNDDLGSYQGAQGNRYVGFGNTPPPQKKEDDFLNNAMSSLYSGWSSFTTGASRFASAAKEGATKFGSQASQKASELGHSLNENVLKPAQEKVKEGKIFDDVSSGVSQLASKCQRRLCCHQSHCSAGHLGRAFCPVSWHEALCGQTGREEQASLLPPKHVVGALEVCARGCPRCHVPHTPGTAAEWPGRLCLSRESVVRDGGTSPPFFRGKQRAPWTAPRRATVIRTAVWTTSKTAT
As for R432C, the “effect of a mutation on the interaction” value is recorded as “disrupting interaction strength”.
On the same count and under the same terms, the result for P451L reads “disrupting interaction strength”.

In the next experiment the parent is B1. The conditions noted are these: with sgta_human SGTA.
As for R432C, the “effect of a mutation on the interaction” value is “disrupting interaction strength”.
Still for that read-out and setting: next, P451L: “with no effect”.

In the next experiment the parent is B1. The conditions noted are these: with otx1_human OTX1, P32242.
Sequence of otx1_human OTX1, P32242 (P32242 whole entry): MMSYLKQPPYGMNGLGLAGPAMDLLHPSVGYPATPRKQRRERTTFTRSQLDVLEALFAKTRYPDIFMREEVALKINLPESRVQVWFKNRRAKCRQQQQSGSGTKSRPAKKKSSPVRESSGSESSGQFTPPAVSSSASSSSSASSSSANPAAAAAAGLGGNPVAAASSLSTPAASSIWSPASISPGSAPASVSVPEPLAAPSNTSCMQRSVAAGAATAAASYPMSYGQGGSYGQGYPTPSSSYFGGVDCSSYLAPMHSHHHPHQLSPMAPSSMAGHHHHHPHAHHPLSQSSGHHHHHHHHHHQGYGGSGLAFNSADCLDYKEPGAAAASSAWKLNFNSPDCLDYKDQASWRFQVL
On to R432C, for which the “effect of a mutation on the interaction” value is reported as “with no effect”.
For the variant P451L, the “effect of a mutation on the interaction” value was “with no effect”.

The variants in another experiment derive from B1. The conditions noted are these: with ccd33_human CCDC33, Q8N5R6.
Sequence of ccd33_human CCDC33, Q8N5R6 (Q8N5R6 whole entry): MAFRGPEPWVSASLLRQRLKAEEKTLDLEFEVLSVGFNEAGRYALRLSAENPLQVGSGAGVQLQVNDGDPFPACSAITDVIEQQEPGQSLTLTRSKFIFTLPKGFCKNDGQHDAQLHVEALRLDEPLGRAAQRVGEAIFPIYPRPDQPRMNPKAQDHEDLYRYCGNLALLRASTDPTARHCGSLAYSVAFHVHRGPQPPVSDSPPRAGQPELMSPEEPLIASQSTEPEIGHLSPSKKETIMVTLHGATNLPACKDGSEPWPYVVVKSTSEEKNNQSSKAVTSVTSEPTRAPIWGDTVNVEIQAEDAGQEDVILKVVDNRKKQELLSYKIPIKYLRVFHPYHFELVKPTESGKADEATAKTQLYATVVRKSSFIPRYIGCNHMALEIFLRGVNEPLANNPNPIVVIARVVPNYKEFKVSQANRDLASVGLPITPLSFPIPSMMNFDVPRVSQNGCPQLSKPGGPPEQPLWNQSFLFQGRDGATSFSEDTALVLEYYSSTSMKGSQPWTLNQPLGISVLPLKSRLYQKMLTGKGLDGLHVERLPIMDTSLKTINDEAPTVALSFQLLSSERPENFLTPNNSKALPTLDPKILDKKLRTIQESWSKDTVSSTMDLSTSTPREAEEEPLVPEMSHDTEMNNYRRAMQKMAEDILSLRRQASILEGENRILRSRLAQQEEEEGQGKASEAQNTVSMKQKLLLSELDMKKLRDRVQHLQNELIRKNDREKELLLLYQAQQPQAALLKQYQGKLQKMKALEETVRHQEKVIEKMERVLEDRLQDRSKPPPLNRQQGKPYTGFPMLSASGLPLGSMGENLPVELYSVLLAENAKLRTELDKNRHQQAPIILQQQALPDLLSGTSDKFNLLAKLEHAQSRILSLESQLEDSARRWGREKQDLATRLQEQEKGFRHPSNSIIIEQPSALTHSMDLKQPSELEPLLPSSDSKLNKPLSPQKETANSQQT
Consider R432C, for which the “effect of a mutation on the interaction” value is on record as “disrupting interaction strength”.
For the variant P451L, the “effect of a mutation on the interaction” value is listed as “disrupting interaction strength”.

A further experiment covers variants of B2. The conditions noted are these: with psa3_human PSMA3, P25788.
Sequence of psa3_human PSMA3, P25788 (P25788 whole entry): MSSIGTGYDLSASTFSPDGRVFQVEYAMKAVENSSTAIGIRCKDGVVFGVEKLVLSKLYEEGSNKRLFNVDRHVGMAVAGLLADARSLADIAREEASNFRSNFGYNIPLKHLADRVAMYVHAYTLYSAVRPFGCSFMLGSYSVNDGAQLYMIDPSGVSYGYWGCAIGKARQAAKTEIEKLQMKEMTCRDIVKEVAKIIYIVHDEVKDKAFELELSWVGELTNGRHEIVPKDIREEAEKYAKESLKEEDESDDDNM
As for T22M, the “effect of a mutation on the interaction” value is recorded as “disrupting interaction strength”.

Another experiment covers variants of B3. The note with it: with exos8_human EXOSC8, Q96B26.
Sequence of exos8_human EXOSC8, Q96B26 (Q96B26 whole entry): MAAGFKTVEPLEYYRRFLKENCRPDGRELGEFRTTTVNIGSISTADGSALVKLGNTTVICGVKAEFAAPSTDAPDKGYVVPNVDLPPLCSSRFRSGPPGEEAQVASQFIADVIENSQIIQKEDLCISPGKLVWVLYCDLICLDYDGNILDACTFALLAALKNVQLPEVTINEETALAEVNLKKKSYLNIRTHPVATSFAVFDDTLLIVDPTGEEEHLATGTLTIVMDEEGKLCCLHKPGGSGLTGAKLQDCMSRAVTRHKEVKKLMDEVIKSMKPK
As for G131S, the “effect of a mutation on the interaction” value is “with no effect”.

In the next experiment the parent is B4. The conditions noted are these: with cep76_human CEP76, Q8TAP6.
Take V36M: the “effect of a mutation on the interaction” value is listed as “disrupting interaction strength”.
The same measure, in the same setting: the result for L69P reads “disrupting interaction strength”; that for F94S, “disrupting interaction strength”.

The variants in another experiment derive from B5. The note with it: with TCF12, Q99081-3.
Sequence of TCF12, Q99081-3 (Q99081 other isoform, or with tags, fused parts or gaps): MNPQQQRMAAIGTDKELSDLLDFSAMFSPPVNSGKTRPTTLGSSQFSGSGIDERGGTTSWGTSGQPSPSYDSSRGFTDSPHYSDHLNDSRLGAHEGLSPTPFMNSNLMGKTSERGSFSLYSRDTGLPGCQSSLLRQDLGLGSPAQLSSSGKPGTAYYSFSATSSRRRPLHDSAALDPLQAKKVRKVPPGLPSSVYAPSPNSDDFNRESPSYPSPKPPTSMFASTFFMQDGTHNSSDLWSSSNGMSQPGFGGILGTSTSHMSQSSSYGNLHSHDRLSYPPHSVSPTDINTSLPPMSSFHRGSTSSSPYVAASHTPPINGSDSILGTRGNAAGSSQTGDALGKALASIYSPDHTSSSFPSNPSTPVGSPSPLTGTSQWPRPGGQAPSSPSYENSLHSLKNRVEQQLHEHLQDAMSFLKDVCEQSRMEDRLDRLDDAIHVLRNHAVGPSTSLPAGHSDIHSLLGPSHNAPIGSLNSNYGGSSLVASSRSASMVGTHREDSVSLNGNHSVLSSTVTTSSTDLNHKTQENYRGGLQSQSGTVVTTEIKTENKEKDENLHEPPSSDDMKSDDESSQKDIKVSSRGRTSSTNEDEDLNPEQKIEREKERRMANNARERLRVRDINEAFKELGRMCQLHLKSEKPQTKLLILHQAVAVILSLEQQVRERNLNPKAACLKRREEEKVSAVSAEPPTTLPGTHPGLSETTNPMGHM
Consider F199S, for which the “effect of a mutation on the interaction” value was “disrupting interaction strength”.
Same read-out and setting: the result for G167R reads “disrupting interaction strength”.

In the next experiment the parent is B6. The conditions noted are these: with adip_human SSX2IP.
In the case of L107V, the “effect of a mutation on the interaction” value is “with no effect”.

Variants of B7 are the subject of the next experiment. The note with it: with goga2_human GOLGA2, Q08379.
Sequence of goga2_human GOLGA2, Q08379 (Q08379 whole entry): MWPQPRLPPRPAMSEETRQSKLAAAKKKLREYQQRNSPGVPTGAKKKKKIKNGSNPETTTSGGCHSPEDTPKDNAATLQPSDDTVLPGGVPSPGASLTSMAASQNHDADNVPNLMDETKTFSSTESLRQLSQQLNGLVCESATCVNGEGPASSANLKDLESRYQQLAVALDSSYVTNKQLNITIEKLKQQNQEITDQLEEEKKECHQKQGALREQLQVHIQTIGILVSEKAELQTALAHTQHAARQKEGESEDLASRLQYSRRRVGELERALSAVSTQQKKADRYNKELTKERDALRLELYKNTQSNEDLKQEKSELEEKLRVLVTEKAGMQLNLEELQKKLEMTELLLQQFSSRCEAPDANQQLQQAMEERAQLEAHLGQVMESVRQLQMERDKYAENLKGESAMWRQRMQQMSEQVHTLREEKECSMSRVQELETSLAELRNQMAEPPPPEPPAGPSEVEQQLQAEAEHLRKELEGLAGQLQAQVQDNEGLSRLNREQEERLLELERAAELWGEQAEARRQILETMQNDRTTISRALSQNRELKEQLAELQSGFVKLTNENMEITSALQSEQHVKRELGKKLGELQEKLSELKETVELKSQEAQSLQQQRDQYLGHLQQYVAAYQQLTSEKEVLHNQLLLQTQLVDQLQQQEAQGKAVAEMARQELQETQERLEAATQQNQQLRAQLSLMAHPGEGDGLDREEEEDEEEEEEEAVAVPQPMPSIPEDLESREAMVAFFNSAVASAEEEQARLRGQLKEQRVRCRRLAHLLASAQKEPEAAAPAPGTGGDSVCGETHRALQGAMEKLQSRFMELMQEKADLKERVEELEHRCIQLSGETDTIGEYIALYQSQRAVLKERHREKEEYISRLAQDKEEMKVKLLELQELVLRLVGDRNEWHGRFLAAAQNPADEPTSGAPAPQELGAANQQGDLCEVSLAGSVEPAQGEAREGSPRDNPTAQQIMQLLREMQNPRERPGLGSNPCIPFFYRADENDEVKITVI
As to Q285R, the “effect of a mutation on the interaction” value is listed as “disrupting interaction strength”.

The variants in another experiment derive from B7. The note with it: with hgs_human HGS.
As to Q285R, the “effect of a mutation on the interaction” value is reported as “disrupting interaction strength”.

In the next experiment the parent is B7. The conditions noted are these: with syce1_human SYCE1, Q8N0S2.
Sequence of syce1_human SYCE1, Q8N0S2 (Q8N0S2 whole entry): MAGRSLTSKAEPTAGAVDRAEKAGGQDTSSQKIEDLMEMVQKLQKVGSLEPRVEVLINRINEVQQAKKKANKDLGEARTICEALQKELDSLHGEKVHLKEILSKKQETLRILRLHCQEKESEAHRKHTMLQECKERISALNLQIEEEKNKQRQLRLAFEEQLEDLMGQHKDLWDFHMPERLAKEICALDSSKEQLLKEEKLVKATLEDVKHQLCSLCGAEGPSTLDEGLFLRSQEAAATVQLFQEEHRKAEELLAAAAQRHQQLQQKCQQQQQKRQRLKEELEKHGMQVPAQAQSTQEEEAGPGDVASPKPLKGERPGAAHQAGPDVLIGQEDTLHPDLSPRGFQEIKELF
Q285R: the “effect of a mutation on the interaction” value is on record as “with no effect”.
